Laboratory results from patent publication US20150315607A1 (ACADEMIA SINICA, published 2015).

B2: ETERNAL TAPETUM 1 (EAT1) (other)
chain: MIVGAGYFEDSHDQSLMAGSLIHDSNQAPASSENTSIDLQKFKVHPYSTEALSNTANLAEAARAINHLQHQLEIDLEQEVPPVETANWDPAICTIPDHIINHQFSEDPQNILVEQQIQQYDSALYPNGVYTPAPDLLNLMQCTMAPAFPATTSVFGDTTLNGTNYLDLNGELTGVAAVPDSGSGLMFASDSALQLGYHGTQSHLIKDICHSLPQNYGLFPSEDERDVIIGVGSGDLFQEIDDRQFDSVLECRRGKGEFGKGKGKANFATERERREQLNVKFRTLRMLFPNPTKNDRASIVGDAIEYIDELNRTVKELKILVEQKRHGNNRRKVLKLDQEAAADGESSSMRPVRDDQDNQLHGAIRSSWVQRRSKECHVDVRIVDDEVNIKLTEKKKANSLLHAAKVLDEFQLELIHVVGGIIGDHHIFMFNTKVSEGSAVYACAVAKKLLQAVDVQHQALDIFN

Experiments:
[1] = target: TAPETUM …ON …ON (TDR1) (Oryza sativa (rice), UniProt Q6YUS3 1-552); assay: cell-based or functional assay
[2] = target: B2; assay: yeast two-hybrid and BiFC (FIG. 13)
[3] = target: T1, CYN1-EAT1 (Oryza sativa (rice), UniProt Q7X8R0 1-464); assay: BiFC in rice protoplasts
T1 construct: BiFC construct expressed in rice protoplasts
T1 sequence: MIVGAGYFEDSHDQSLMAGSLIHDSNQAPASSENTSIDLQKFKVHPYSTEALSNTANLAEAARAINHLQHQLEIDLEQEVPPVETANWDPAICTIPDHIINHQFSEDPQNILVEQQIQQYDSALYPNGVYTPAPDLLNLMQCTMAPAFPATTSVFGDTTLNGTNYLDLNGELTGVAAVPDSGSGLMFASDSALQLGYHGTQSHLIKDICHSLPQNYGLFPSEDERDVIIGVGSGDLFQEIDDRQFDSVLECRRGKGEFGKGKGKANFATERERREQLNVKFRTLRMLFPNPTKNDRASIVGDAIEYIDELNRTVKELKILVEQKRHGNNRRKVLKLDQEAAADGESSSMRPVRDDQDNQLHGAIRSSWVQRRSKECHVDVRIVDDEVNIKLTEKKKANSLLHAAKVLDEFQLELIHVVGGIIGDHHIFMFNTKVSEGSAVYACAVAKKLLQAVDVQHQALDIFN

B1: transcription factor bHLH142 (other)
chain: MYHPQCELLMPLESLEMDVGQSHLAAAVAAAMPGELNFHLLHSLDAAAAAASSTAASASSQPTVDYFFGGADQQPPPPAAMQYDQLAAPHHHQTVAMLRDYYGGHYPPAAAAAAATEAYFRGGPRTAGSSSLVFGPADDESAFMVGPFESSPTPRSGGGRKRSRATAGFHGGGPANGVEKKEKQRRLRLTEKYNALMLLIPNRTKEDRATVISDAIEYIQELGRTVEELTLLVEKKRRRREMQGDVVDAATSSVVAGMDQAAESSEGEVMAAAAMGAVAPPPRQAPIRSTYIQRRSKETFVDVRIVEDDVNIKLTKRRRDGCLAAASRALDDLRLDLVHLSGGKIGDCHIYMFNTKIHSGSPVFASAVASRLIEVVDEY
notes: Rice bHLH transcription factor as named in general statements and as 35S-driven effector in the EAT1pro-Luc protoplast assay; also called Os01g0293100
For B1, the “Luc expression from the EAT1 promoter (EAT1pro-Luc), transient assay in rice protoplasts” value [1] was at most 30 fold and the binding result [2] was “no binding”.

With B2 the “Luc expression from the EAT1 promoter (EAT1pro-Luc) with bHLH142, TDR1 and additional EAT1, transient assay in rice protoplasts” value [1] was 18 fold.

B3: NYN1-bHLH142 (other, not shown: large carriers)
chain: MYHPQCELLMPLESLEMDVGQSHLAAAVAAAMPGELNFHLLHSLDAAAAAASSTAASASSQPTVDYFFGGADQQPPPPAAMQYDQLAAPHHHQTVAMLRDYYGGHYPPAAAAAAATEAYFRGGPRTAGSSSLVFGPADDESAFMVGPFESSPTPRSGGGRKRSRATAGFHGGGPANGVEKKEKQRRLRLTEKYNALMLLIPNRTKEDRATVISDAIEYIQELGRTVEELTLLVEKKRRRREMQGDVVDAATSSVVAGMDQAAESSEGEVMAAAAMGAVAPPPRQAPIRSTYIQRRSKETFVDVRIVEDDVNIKLTKRRRDGCLAAASRALDDLRLDLVHLSGGKIGDCHIYMFNTKIHSGSPVFASAVASRLIEVVDEY
notes: BiFC construct expressed in rice protoplasts
B3: no binding [3].
